Experimental data as given in patent publication US20250332238.

What was measured:
[1] = molecular target: T1, TRMT112 (KMT9beta; tRNA methyltransferase subunit 11-2, isoform 2, Homo sapiens)
T1 chain: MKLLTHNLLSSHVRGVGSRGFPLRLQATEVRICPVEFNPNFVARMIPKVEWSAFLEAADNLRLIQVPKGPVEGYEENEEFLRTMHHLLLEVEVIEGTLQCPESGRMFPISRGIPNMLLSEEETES

[2] = molecular target: mutant histone H4 where K12 was changed to alanine (H4K12A), P62805

B1: C21orf127 (KMT9alpha; N-6 adenine-specific DNA methyltransferase 1, isoform 1, Homo sapiens) (protein)
chain: MAGENFATPFHGHVGRGAFSDVYEPAEDTFLLLDALEAAAAELAGVEICLEVGSGSGVVSAFLASMIGPQALYMCTDINPEAAACTLETARCNKVHIQPVITDLVKGLLPRLTEKVDLLVFNPPYVVTPPQEVGSHGIEAAWAGGRNGREVMDRFFPLVPDLLSPRGLFYLVTIKENNPEEILKIMKTKGLQGTTALSRQAGQETLSVLKFTKS
- HMT activity (methylation assay) [1]: only the C21orf127/TRMT112 heterodimer displayed HMT activity

B2: C21orf127(Y125A)/TRMT112 complex (protein)
chain 1: MAGENFATPFHGHVGRGAFSDVYEPAEDTFLLLDALEAAAAELAGVEICLEVGSGSGVVSAFLASMIGPQALYMCTDINPEAAACTLETARCNKVHIQPVITDLVKGLLPRLTEKVDLLVFNPPAVVTPPQEVGSHGIEAAWAGGRNGREVMDRFFPLVPDLLSPRGLFYLVTIKENNPEEILKIMKTKGLQGTTALSRQAGQETLSVLKFTKS
chain 2: MKLLTHNLLSSHVRGVGSRGFPLRLQATEVRICPVEFNPNFVARMIPKVEWSAFLEAADNLRLIQVPKGPVEGYEENEEFLRTMHHLLLEVEVIEGTLQCPESGRMFPISRGIPNMLLSEEETES
- methylation of ETF1 (methylation assay) (ETF1, P62495): resulted in methylation of H4K12, but not ETF1 by the mutant C21orf127(Y125A)/TRMT112 complex
- methylation of H4K12 (methylation assay) (histone H4, P62805): resulted in methylation of H4K12, but not ETF1 by the mutant C21orf127(Y125A)/TRMT112 complex

B3: C21orf127/TRMT112 heterodimer (KMT9) (protein)
chain 1: MAGENFATPFHGHVGRGAFSDVYEPAEDTFLLLDALEAAAAELAGVEICLEVGSGSGVVSAFLASMIGPQALYMCTDINPEAAACTLETARCNKVHIQPVITDLVKGLLPRLTEKVDLLVFNPPYVVTPPQEVGSHGIEAAWAGGRNGREVMDRFFPLVPDLLSPRGLFYLVTIKENNPEEILKIMKTKGLQGTTALSRQAGQETLSVLKFTKS
chain 2: MKLLTHNLLSSHVRGVGSRGFPLRLQATEVRICPVEFNPNFVARMIPKVEWSAFLEAADNLRLIQVPKGPVEGYEENEEFLRTMHHLLLEVEVIEGTLQCPESGRMFPISRGIPNMLLSEEETES
- in vitro methylation assay with SAM [3H] (FIG. 1A, FIG. 1B) (histone H4, P62805): wild-type H4 protein, but not mutant H4 where K12 was changed to an alanine (A) residue (H4K12A), was methylated
- in vitro methylation assay with SAM [3H] (FIG. 1B) [2]: wild-type H4 protein, but not mutant H4 where K12 was changed to an alanine (A) residue (H4K12A), was methylated
